Test results published in PMC10783494, “A conserved protein inhibitor brings under check the activity of RNase E in cyanobacteria”.
Blank lines part the entries; values can stand above or below the molecule they belong to.

Legend:
[1] = target: RneN412, the catalytic region of Anabaena RNase E (1-412 aa) (Anabaena PCC 7120)
[2] = target: RneN396, the catalytic core of Anabaena RNase E (1-396 aa) (Anabaena PCC 7120); assay: SPR; Biacore, 25°C, PBS pH 7.4; RneN396 (2 uM) immobilized on a streptavidin-coated sensor chip; RebA injected at 0-1000 nM; steady-state affinity
[3] = target: RneN396, the catalytic core of Anabaena RNase E (1-396 aa) (Anabaena PCC 7120); assay: native gel or EMSA; RneN396, RebA and their mixture incubated for 30 min and separated on a native gel; the band of the complex excised and analysed by SDS-PAGE beside defined molar ratios, bands quantified with ImageJ
RebA = RebA (Anabaena PCC 7120, UniProt A0ABR7ZDZ7 1-423); assay: EMSA; RebA up to 50-fold molar excess; 2 mM EDTA; 20 mM Tris-HCl pH 8.0, 200 mM NaCl, 0.1 mM DTT, 2 mM EDTA, 5% glycerol, 1 mg/ml BSA; 30 min at 30 C; 5% native PAGE at 4 C; settings: protein: recombinant; tags: N-terminal Strep tag; label: 3' FAM
[4] = target: T1, RneN396, the catalytic core of Anabaena RNase E (1-396 aa) (Anabaena PCC 7120); assay: BLI
T1 chain: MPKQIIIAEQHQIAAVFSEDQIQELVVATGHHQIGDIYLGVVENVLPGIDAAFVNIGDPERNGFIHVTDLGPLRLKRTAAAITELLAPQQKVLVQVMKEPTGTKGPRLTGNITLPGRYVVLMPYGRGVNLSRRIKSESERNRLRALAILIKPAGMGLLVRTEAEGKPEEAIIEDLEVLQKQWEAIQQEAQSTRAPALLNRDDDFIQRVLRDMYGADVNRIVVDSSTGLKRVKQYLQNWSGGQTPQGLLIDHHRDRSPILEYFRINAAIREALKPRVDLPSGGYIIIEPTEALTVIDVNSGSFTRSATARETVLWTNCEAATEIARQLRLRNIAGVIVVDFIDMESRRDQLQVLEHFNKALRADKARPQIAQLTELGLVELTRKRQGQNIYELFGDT

cleavage of 5′ p-LU13-FAM by RneN412 (0.4 nM) with increasing RebA: ratio of RebA to RneN412 for half-inhibition (RebA:RneN412 ratio) [1]: 1 | cleavage of 5′ p-LU13-FAM by RneN412 with increasing RebA (up to a RebA:RneN412 ratio of 4:1): drop of activity [1]: 90% | Kd [2]: 10.3 nM | stoichiometry N [3]: 1 RneN396:RebA
Molecule: full-length RebA bearing an N-terminal Strep tag (recombinant) (natural protein)

B1: 5' p-LU13-FAM (ssRNA)
RNA: GAGACAGUAUUUG
modifications: 5' monophosphate
binding result (RebA): no binding

koff [4]: 0.000112 s⁻¹
B2: full-length RebA bearing an N-terminal Strep tag (recombinant) (natural protein)
chain: MRKLTNSDKQEILKLYRETAETTSTLAERYDVSNSTISRLLKSTLPEDEYEFLVSLKRAARTPEGRAQVSYDQIPFVGQPEEAPVISTQKVELPEPITKPEPSRVEDKPTPVIRKGRQAKPAPLPEENPQPLLAEEEKPTPVIRRGRQAKPAPLPEEEKPTPVIRKARQAKPEFFAEEEEKPTPVIRKARQAKPEFFAEEEEKPTPVIRRVRRRSASEEEDREPIARQLEIPVGKPQEIISVSSPSLEDETAEVTPMGYAPPQVIAEMLGEDLLDESEDLDDLEEDLDEDLDEEDYEDEEDDLEEARPLVTRRRFGDAAVQVLPLSVASLPKTCYLVIDRSSELITRPLKDFGDLGQIPSLETQQRTLPIFDNHRVAKRFSTKRDRVIKVPDSRMLHKARTHLQAKGITRLLIDGQVYSLSLV
